The values that follow come from patent publication US6686177B1, “Insulin analogs with enhanced zinc binding” (Aventis Pharma Deutschland GmbH, priority 1998, dated 2004).

Data set [1] can be described thus: Zinc binding of insulin analogs (dialysis against zinc-free neutral buffer, HPLC and atomic absorption spectroscopy). The format is physicochemical. As to conditions: for Zinc binding: after extensive dialysis against zinc-free neutral buffer, pH 7.4; for zinc ions bound per hexamer: aqueous neutral solution, not removable by dialysis.
Experimental: The dialyzates were then acidified and analyzed. The concentration of insulin was determined by reversed phase HPLC and that of the zinc by atomic absorption spectroscopy. The zinc values were corrected using the zinc content of a control batch which contained no insulin.
For data set [2] the following is noted: aqueous neutral solution, not removable by dialysis; cited from earlier work.

As to human insulin [reference compound], the Zinc binding in data set [1] is recorded as 2.5 mol of zinc/mol of hexamer. The “zinc ions complexed per hexamer via the His(B10) side chains” value in data set [2] is on record as “two”.

Turning to Asp(B3)-human insulin [Asp(B3)-insulin], in data set [1], the Zinc binding is reported as 4.2 mol of zinc/mol of hexamer and the “zinc ions bound per hexamer” value came out at 4.2 zinc ions/hexamer.

Consider His(B3)-human insulin [His(B3)-insulin], for which, in data set [1], the Zinc binding was 6.9 mol of zinc/mol of hexamer and the “zinc ions bound per hexamer” value is given as “approximately 7 zinc ions/hexamer”.
